This data set has as its system K4 kissing-loop RNA reporter. In words: apparent KD of K4 kissing-loop reporter; higher = weaker reporter binding. The conditions noted are these: Eterna round: R107. The method, then: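 RNA-MaP round R107: designed RNA switches with theophylline, tryptophan, arginine or FMN aptamers are transcribed on-chip within common flanks. They are titrated with a labelled K4 kissing-loop RNA reporter in RNA-MaP buffer (100 mM Tris pH 7.5, 80 mM KCl, 4 mM MgCl2), without ligand or with the indicated ligand. Median apparent KD per design.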

The mark [1] stands for this setting: input ligand: theophylline 20 uM.
Where [2] appears, read: input ligand: tryptophan 2.4 mM.
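Further: bound reporter read as fluorescence of individual clusters on recovered sequencing chips by microscopy, with normalized cluster intensities fitted with a binding model.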

In the case of “AUGUUGAGCGGAAGGAGCGGCUGAGCCAGUGAUGUUGGUUAAUCCAAGUGAUGUUGGAAAAGCCAGGUAGGUCGCCGCUUUACGU [whbob_SS_Arginine_B_2t144]”, the “apparent KD of K4 kissing-loop reporter” value is, setting by setting: (input ligand: FMN 200 uM) 1010 nM; (input ligand: arginine 13.2 mM) 741 nM; (input ligand: none) 1040 nM; under setting [1], 926 nM; under setting [2], 832 nM.

Take “AUUAAUUUCAGAGGAUAUCGUGAUUUUAUUUAAUUUAUUCAUUUGUGCAGUGAUGUUGCUAAUAUUCGAGAAGGCUGAUUUAUAA [whbob_Ex_FMNB__2th224]”: the “apparent KD of K4 kissing-loop reporter” value is 107 nM (input ligand: FMN 200 uM); 109 nM (input ligand: arginine 13.2 mM); 46.2 nM (input ligand: none); 110 nM under setting [1]; 44.9 nM under setting [2].

Take “AUUAAUUUCAGAGGAUAUGCUUAAUUGAUUUAUUAUUAUCUAUUAUGCAGUGAUGUUGCAUAUUUUGCAGAAGGCUGAUUUAUAA [JR_SSFMNB_Sub018]”: the “apparent KD of K4 kissing-loop reporter” value by setting is: (input ligand: FMN 200 uM) 123 nM; (input ligand: arginine 13.2 mM) 156 nM; (input ligand: none) 140 nM; under setting [1], 156 nM; under setting [2], 125 nM.

“AUUCUAUUGUGAAGGAGCGCGACUAGUAGUGAUGUUACUAUAUGACUUUAGUCUUAAUUCUCGCAGGUAGGUCGCACAAUAUAUA [JR_Nu_SSArginiB_Sub028]”: the “apparent KD of K4 kissing-loop reporter” value (input ligand: FMN 200 uM) came out at 913 nM; the “apparent KD of K4 kissing-loop reporter” value (input ligand: arginine 13.2 mM) was 594 nM; the “apparent KD of K4 kissing-loop reporter” value (input ligand: none) amounted to 796 nM; the “apparent KD of K4 kissing-loop reporter” value under setting [1] is 732 nM; the “apparent KD of K4 kissing-loop reporter” value under setting [2] came out at 755 nM.

As to “AUUUAGACGAGUGAUGUUCGUGUUAAUACAGAGGAUAUGCGUGAUUGCAGAAGGCUGUAUUUAUAUAUGUUAUGUGGUUUUAAAA [whbob_Ex_FMNA__2th187]”, the “apparent KD of K4 kissing-loop reporter” value worked out at 76.6 nM (input ligand: FMN 200 uM); 115 nM (input ligand: arginine 13.2 mM); 87.2 nM (input ligand: none); 99.7 nM under setting [1]; 66.3 nM under setting [2].

For “AUUUAGACGAGUGAUGUUCGUGUUAUUACAGAGGAUAUGCGUAAAAGCAGAAGGCUGUAUUUAUAUUUGUUAUGUAAUUUUAAAA [JR_ExcFMNA_Sub006]”, the “apparent KD of K4 kissing-loop reporter” value is 75.2 nM (input ligand: FMN 200 uM); 105 nM (input ligand: arginine 13.2 mM); 85.9 nM (input ligand: none); 94 nM under setting [1]; 63.9 nM under setting [2].

For “AUUUAUCCGUCCAGCUGAGUGAUGUUUAGCCGAGGACCGGUACGGCCGCCACUCGUAAGAACCUGUUACGUUGGCUCCUGUGGUG [theeternabot_exclusion_KL_Trp_A_49]”, the “apparent KD of K4 kissing-loop reporter” value turned out to be 244 nM (input ligand: FMN 200 uM); 196 nM (input ligand: arginine 13.2 mM); 286 nM (input ligand: none); 201 nM under setting [1]; 353 nM under setting [2].

Regarding “AUUUUCAAUUUAUUAUAUAACUUUUCAGAAGGAGCGUGGAAGUUCACAGGUAGGUCGCUGAAUAUAGGACUAGUGAUGUUAGUUA [JR_Nu_SSArginiA_Sub023]”, the “apparent KD of K4 kissing-loop reporter” value (input ligand: FMN 200 uM) is 284 nM; the “apparent KD of K4 kissing-loop reporter” value (input ligand: arginine 13.2 mM) stood at 247 nM; the “apparent KD of K4 kissing-loop reporter” value (input ligand: none) was 279 nM; the “apparent KD of K4 kissing-loop reporter” value under setting [1] stood at 268 nM; the “apparent KD of K4 kissing-loop reporter” value under setting [2] was 258 nM.

Turning to “AUUUUGAGUGAUGUUCAUAUCUAUUCUGAAGGAGCGCUAAAUAAGGCAGGUAGGUCGCGGAAUAUAUAUAUAUAUAUAUAUAUAU [KL-SSArg-A30]”, the “apparent KD of K4 kissing-loop reporter” value is, setting by setting: (input ligand: FMN 200 uM) 538 nM; (input ligand: arginine 13.2 mM) 809 nM; (input ligand: none) 711 nM; under setting [1], 624 nM; under setting [2], 537 nM.

Turning to “AUUUUGGUUUAGAGUGAUGUUCCUUGUAUUCGAGGACCGGUACGGCCGCCACUCGAAUAGAAAAGAAAAGAAAUGAGUGAUGUUU [BDazzled - #4 SS Tryptophan A]”, the “apparent KD of K4 kissing-loop reporter” value was found to be 519 nM (input ligand: FMN 200 uM); 267 nM (input ligand: arginine 13.2 mM); 362 nM (input ligand: none); 357 nM under setting [1]; 356 nM under setting [2].

Take “AUUUUUUUGUCAGGAUAUUAGUAUGCAUUUAGUUUGUUAGUGAUGUUGAUAUUUUGUUUAUGUAUUUAAGAAGGGAUUUAGCGGU [iiikmullin]”: the “apparent KD of K4 kissing-loop reporter” value runs as follows: (input ligand: FMN 200 uM) 384 nM; (input ligand: arginine 13.2 mM) 217 nM; (input ligand: none) 335 nM; under setting [1], 340 nM; under setting [2], 306 nM.

As for “CAACAGCUUACGGCCGCCACUCCUUUAUAUGGUGCGCACCGUUGAGCUCUAGUGAUGUUGGUGCCGAGGACCGGGUAGGAAAGUA [theeternabot_sameState_KL_Trp_B_31]”, the “apparent KD of K4 kissing-loop reporter” value reads like this: (input ligand: FMN 200 uM) 468 nM; (input ligand: arginine 13.2 mM) 245 nM; (input ligand: none) 331 nM; under setting [1], 448 nM; under setting [2], 412 nM.

For the sequence “CACCUAGGUACGGCCGCCACUAGAAGUGAUGUUUCGUCUGGUUCCGCAUUACGUGUACUUUCUUAUAGGACCGGGUAGCAAAUAG [theeternabot_exclusion_KL_Trp_B_3]”, the “apparent KD of K4 kissing-loop reporter” value (input ligand: FMN 200 uM) was determined as 548 nM; the “apparent KD of K4 kissing-loop reporter” value (input ligand: arginine 13.2 mM) turned out to be 288 nM; the “apparent KD of K4 kissing-loop reporter” value (input ligand: none) was determined as 563 nM; the “apparent KD of K4 kissing-loop reporter” value under setting [1] was found to be 258 nM; the “apparent KD of K4 kissing-loop reporter” value under setting [2] came out at 311 nM.

With “CACCUGCCAUAAGGAUAUUCGUCUUUGCGCUUCCAGUGAUGUUGGAGAUCGCAACACAUGGUCAUAGAAGAAGGUAUGGUAUUAA [theeternabot_sameState_KL_FMN_B_35]”, the “apparent KD of K4 kissing-loop reporter” value turned out to be 154 nM (input ligand: FMN 200 uM); 186 nM (input ligand: arginine 13.2 mM); 195 nM (input ligand: none); 191 nM under setting [1]; 186 nM under setting [2].

On to “CACUUACGUAGUGAUGUUACGAUCUCUGAUACCAGACAACUCUAAGUCCCUUGGCAGCAGUCAUUUUGCUUAUAAUUUACUCAAA [JR_ExcTheophyA_Sub015]”, for which the “apparent KD of K4 kissing-loop reporter” value (input ligand: FMN 200 uM) worked out at 657 nM; the “apparent KD of K4 kissing-loop reporter” value (input ligand: arginine 13.2 mM) was found to be 556 nM; the “apparent KD of K4 kissing-loop reporter” value (input ligand: none) was found to be 786 nM; the “apparent KD of K4 kissing-loop reporter” value under setting [1] is 646 nM; the “apparent KD of K4 kissing-loop reporter” value under setting [2] was found to be 508 nM.

The values are drawn from the supplement of paper PMC9170038.
